Results reported in US20260242419A1, “A CYCLIC PEPTIDE FOR TRAPPING INTERLEUKIN-1 BETA” (Merck Sharp & Dohme LLC, priority 2023, published 2026).
Starred links: 1 amine or outer side, 2 acyl side, 3 side chain; linkers in the order of their positions; H or OH if unused. Non-standard residues stand in square brackets, D forms with d. dProc4CH21Naph4F = (2R,4R)-4-[(4-fluoro-1-naphthyl)methyl]pyrrolidine-2-carboxylic acid, O=C([C@H]1C[C@@H](Cc2ccc(F)c3ccccc23)CN1[*:1])[*:2]; Bip4CONMe2 = (2S)-2-amino-3-[4-[4-(dimethylcarbamoyl)phenyl]phenyl]propanoic acid, CN(C)C(=O)c1ccc(-c2ccc(C[C@H](N[*:1])C(=O)[*:2])cc2)cc1; dProc3Bn4Cl = (2R,3S)-3-[(4-chlorophenyl)methyl]pyrrolidine-2-carboxylic acid, O=C([C@H]1[C@@H](Cc2ccc(Cl)cc2)CCN1[*:1])[*:2]; dProc4Bn4Cl = (2R,4R)-4-[(4-chlorophenyl)methyl]pyrrolidine-2-carboxylic acid, O=C([C@H]1C[C@@H](Cc2ccc(Cl)cc2)CN1[*:1])[*:2]; TyrEtNAc = (2S)-3-[4-(2-acetamidoethoxy)phenyl]-2-amino-propanoic acid, CC(=O)NCCOc1ccc(C[C@H](N[*:1])C(=O)[*:2])cc1; dProc3CH24Pal = (2R,3S)-3-(4-pyridylmethyl)pyrrolidine-2-carboxylic acid, O=C([C@H]1[C@@H](Cc2ccncc2)CCN1[*:1])[*:2]; DabMe3 = [(3S)-3-amino-4-oxo-butyl]-trimethyl-ammonium, C[N+](C)(C)CC[C@H](N[*:1])C(=O)[*:2]; 4PyrimAla = (2S)-2-amino-3-pyrimidin-4-yl-propanoic acid, O=C([C@H](Cc1ccncn1)N[*:1])[*:2]; Phe4pcCCA = (1R,4s)-4-(4-((S)-2-amino-2-carboxyethyl)phenyl)cyclohexane-1-carboxylic acid; Ala3Isoxa5Me = 3-(5-methylisoxazol-3-yl)alanine, Cc1cc(C[C@H](N[*:1])C(=O)[*:2])no1; Ala2Oxa = 3-(oxazol-2-yl)alanine, O=C([C@H](Cc1ncco1)N[*:1])[*:2]; dPro(4R-(4-pyridylmethyl)) = O=C(O)[C@H]1C[C@@H](Cc2ccncc2)CN1; Ala(piperidin-4-yl) = O=C([C@H](CC1CCN([*:3])CC1)N[*:1])[*:2]; Trp(βS-Me,4-F) = C[C@@H](c1c[nH]c2cccc(F)c12)[C@H](N)C(=O)O; Bip(4'-CONH2) = NC(=O)c1ccc(-c2ccc(C[C@H](N)C(=O)O)cc2)cc1; Bip(4'-COOH) = N[C@@H](Cc1ccc(-c2ccc(C(=O)O)cc2)cc1)C(=O)O; Ala(1-bicyclo(1.1.1)pentyl) = N[C@@H](CC12CC(C1)C2)C(=O)O; dPro(4R-Bzl(4-F)) = O=C(O)[C@H]1C[C@@H](Cc2ccc(F)cc2)CN1; dPro(3S-(4-F-Bn)) = O=C(O)[C@@H]1NCC[C@@H]1Cc1ccc(F)cc1; Ala(morpholin-4-yl) = N[C@@H](CN1CCOCC1)C(=O)O; Ala(pyrimidin-5-yl) = N[C@@H](Cc1cncnc1)C(=O)O; Phe(4-COOH) = N[C@@H](Cc1ccc(C(=O)O)cc1)C(=O)O; Ala(4-Pyridazinyl) = N[C@@H](Cc1ccnnc1)C(=O)O; Ala(2-pyrazinyl) = N[C@@H](Cc1cnccn1)C(=O)O; Bip = N[C@@H](Cc1ccc(-c2ccccc2)cc1)C(=O)O; Pro(cis-4-F) = O=C(O)[C@@H]1C[C@H](F)CN1; cisHyp = O=C(O)[C@@H]1C[C@H](O)CN1; d(αMeD) = C[C@@](N)(CC(=O)O)C(=O)O; h4Pal = N[C@@H](CCc1ccncc1)C(=O)O; 3Pal = N[C@@H](Cc1cccnc1)C(=O)O; 4Pal = N[C@@H](Cc1ccncc1)C(=O)O; aThr = C[C@H](O)[C@H](N)C(=O)O; d(αMeS) = C[C@@](N)(CO)C(=O)O; Dab = NCC[C@H](N)C(=O)O; Aib = CC(C)(N)C(=O)O; Sar = CNCC(=O)O

B1: SEQ ID NO 314 (peptide)
peptide: cyclo([Bip(4'-COOH)][4Pal][Phe(4-COOH)]G[Pro(cis-4-F)][Trp(βS-Me,4-F)][Aib]SW[Aib][DabMe3]Q[Dab]G[dPro(4R-Bzl(4-F))])
modifications: ring closure inferred; not fully specified (N-terminus); printed as cyclic, Bip4CO2H-4Pal-Phe4COOH-G-Proc4F-sbMeW4F-Aib-S-W-Aib-DabMe3-Q-Dab-G-dProc4Bn4F

What follows are binders tested against Recombinant human IL-1β (BioLegend 579404) (human, UniProt P01584 117-269) (assay: cell-based or functional assay).

MRC5 IC50 [nM]	Binder
0.024	cyclo([Bip4CONMe2][Ala(1-bicyclo(1.1.1)pentyl)][Phe(4-COOH)]G[Pro(cis-4-F)][Trp(βS-Me,4-F)][Aib]SW[d(αMeD)][Ala(pyrimidin-5-yl)]Q[Dab]G[dPro(4R-(4-pyridylmethyl))]) (ring closure inferred) [SEQ ID NO 341]
0.022	cyclo([Phe4pcCCA][Ala(1-bicyclo(1.1.1)pentyl)][Phe(4-COOH)]G[Pro(cis-4-F)][Trp(βS-Me,4-F)][Aib]SW[d(αMeD)][aThr]Q[Dab]G[dPro(4R-(4-pyridylmethyl))]) (ring closure inferred) [SEQ ID NO 334]
0.018	cyclo([Bip4CONMe2][4Pal][Phe(4-COOH)]G[Pro(cis-4-F)][Trp(βS-Me,4-F)][Aib]SW[d(αMeS)][Ala(pyrimidin-5-yl)]Q[Dab]G[dPro(4R-(4-pyridylmethyl))]) (ring closure inferred) [SEQ ID NO 338]
0.015	cyclo([Bip(4'-COOH)][4Pal][Phe(4-COOH)]G[Pro(cis-4-F)][Trp(βS-Me,4-F)][Aib]SW[d(αMeD)][Ala(piperidin-4-yl)]Q[Dab]G[dPro(4R-Bzl(4-F))]) (ring closure inferred) [SEQ ID NO 320]
0.013	cyclo([Bip(4'-COOH)][4Pal][Phe(4-COOH)]G[Pro(cis-4-F)][Trp(βS-Me,4-F)][Aib]SW[d(αMeD)][Ala(4-Pyridazinyl)]Q[Dab]G[dPro(4R-Bzl(4-F))]) (ring closure inferred) [SEQ ID NO 322]
0.022	cyclo([Bip][4Pal][Phe(4-COOH)]G[Pro(cis-4-F)][Trp(βS-Me,4-F)][Aib]SW[d(αMeD)][Ala(pyrimidin-5-yl)]Q[Dab]G[dPro(4R-(4-pyridylmethyl))]) (ring closure inferred) [SEQ ID NO 333]
0.015	cyclo([Bip(4'-COOH)][4Pal][Phe(4-COOH)]G[Pro(cis-4-F)][Trp(βS-Me,4-F)][Aib]SW[d(αMeD)][Ala(2-pyrazinyl)]Q[Dab]G[dPro(4R-Bzl(4-F))]) (ring closure inferred) [SEQ ID NO 321]
0.016	cyclo([Bip(4'-COOH)][4Pal][Phe(4-COOH)]G[Pro(cis-4-F)][Trp(βS-Me,4-F)][Aib]SW[d(αMeD)][Ala(pyrimidin-5-yl)]Q[Dab]G[dProc4CH21Naph4F]) (ring closure inferred) [SEQ ID NO 327]
0.024	cyclo([Bip(4'-CONH2)][4Pal][Phe(4-COOH)]G[Pro(cis-4-F)][Trp(βS-Me,4-F)][Aib]SW[d(αMeS)][Ala(pyrimidin-5-yl)]Q[Dab]G[dPro(4R-(4-pyridylmethyl))]) (ring closure inferred) [SEQ ID NO 339]
0.013	cyclo([Bip(4'-COOH)][4Pal][Phe(4-COOH)]G[Pro(cis-4-F)][Trp(βS-Me,4-F)][Aib]SW[d(αMeD)][4PyrimAla]Q[Dab]G[dPro(4R-Bzl(4-F))]) (ring closure inferred) [SEQ ID NO 332]
0.02	B1
0.011	cyclo([Bip(4'-COOH)][4Pal][Phe(4-COOH)]G[Pro(cis-4-F)][Trp(βS-Me,4-F)][Aib]SW[d(αMeD)][Ala(pyrimidin-5-yl)]Q[Dab]G[dPro(3S-(4-F-Bn))]) (ring closure inferred) [SEQ ID NO 331]
0.015	cyclo([TyrEtNAc][4Pal][Phe(4-COOH)]G[Pro(cis-4-F)][Trp(βS-Me,4-F)][Aib]EW[Aib]HQ[Dab]G[dPro(4R-(4-pyridylmethyl))]) (ring closure inferred) [SEQ ID NO 317]
0.022	cyclo([Bip(4'-COOH)][4Pal][Phe(4-COOH)]G[Pro(cis-4-F)][Trp(βS-Me,4-F)][Aib]SW[d(αMeD)][aThr]Q[Dab][Sar][dPro(4R-(4-pyridylmethyl))]) (ring closure inferred) [SEQ ID NO 337]
0.011	cyclo([Bip(4'-COOH)][4Pal][Phe(4-COOH)]G[Pro(cis-4-F)][Trp(βS-Me,4-F)][Aib]SW[Aib][Ala(pyrimidin-5-yl)]Q[Dab]G[dProc3CH24Pal]) (ring closure inferred) [SEQ ID NO 326]
0.008	cyclo([Bip(4'-COOH)][4Pal][Phe(4-COOH)]G[Pro(cis-4-F)][Trp(βS-Me,4-F)][Aib]SW[d(αMeD)][Ala(pyrimidin-5-yl)]Q[Dab]G[dProc3CH24Pal]) (ring closure inferred) [SEQ ID NO 328]
0.02	cyclo([TyrEtNAc][4Pal][Phe(4-COOH)]G[Pro(cis-4-F)][Trp(βS-Me,4-F)][Aib]EW[Aib][Ala2Oxa]Q[Dab]G[dPro(4R-(4-pyridylmethyl))]) (ring closure inferred; not fully specified (N-terminus)) [SEQ ID NO 316]
0.021	cyclo([Bip][4Pal][Phe(4-COOH)]G[Pro(cis-4-F)][Trp(βS-Me,4-F)][Aib]SW[d(αMeS)][Ala(pyrimidin-5-yl)]Q[Dab]G[dPro(4R-(4-pyridylmethyl))]) (ring closure inferred) [SEQ ID NO 340]
0.017	cyclo([Bip(4'-COOH)][4Pal][Phe(4-COOH)]G[Pro(cis-4-F)][Trp(βS-Me,4-F)][Aib]SW[d(αMeD)][Ala(morpholin-4-yl)]Q[Dab]G[dPro(4R-Bzl(4-F))]) (ring closure inferred) [SEQ ID NO 319]
0.027	cyclo([Bip(4'-COOH)][4Pal][Phe(4-COOH)]G[cisHyp][Trp(βS-Me,4-F)][Aib]SW[Aib][Ala(pyrimidin-5-yl)]Q[Dab]G[dProc3CH24Pal]) (ring closure inferred) [SEQ ID NO 325]
0.023	cyclo([TyrEtNAc][4Pal][Phe(4-COOH)]G[Pro(cis-4-F)][Trp(βS-Me,4-F)][Aib]EW[Aib]FQ[Dab]G[dPro(4R-(4-pyridylmethyl))]) (ring closure inferred) [SEQ ID NO 336]
0.012	cyclo([Bip(4'-COOH)][4Pal][Phe(4-COOH)]G[Pro(cis-4-F)][Trp(βS-Me,4-F)][Aib]SW[d(αMeD)][3Pal]Q[Dab]G[dPro(4R-Bzl(4-F))]) (ring closure inferred) [SEQ ID NO 323]
0.022	cyclo([Phe4pcCCA][Ala(1-bicyclo(1.1.1)pentyl)][Phe(4-COOH)]G[Pro(cis-4-F)][Trp(βS-Me,4-F)][Aib]SW[d(αMeD)][Ala(pyrimidin-5-yl)]Q[Dab]G[dPro(4R-(4-pyridylmethyl))]) (ring closure inferred) [SEQ ID NO 335]
0.018	cyclo([TyrEtNAc][4Pal][Phe(4-COOH)]G[Pro(cis-4-F)][Trp(βS-Me,4-F)][Aib]EW[Aib][Ala3Isoxa5Me]Q[Dab]G[dPro(4R-(4-pyridylmethyl))]) (ring closure inferred; not fully specified (N-terminus)) [SEQ ID NO 315]
0.008	cyclo([Bip(4'-COOH)][4Pal][Phe(4-COOH)]G[Pro(cis-4-F)][Trp(βS-Me,4-F)][Aib]SW[d(αMeD)][Ala(pyrimidin-5-yl)]Q[Dab]G[dProc3Bn4Cl]) (ring closure inferred) [SEQ ID NO 330]
0.025	cyclo([TyrEtNAc][4Pal][Phe(4-COOH)]G[Pro(cis-4-F)][Trp(βS-Me,4-F)][Aib]EW[Aib][h4Pal]Q[Dab]G[dPro(4R-(4-pyridylmethyl))]) (ring closure inferred) [SEQ ID NO 318]
0.009	cyclo([Bip(4'-COOH)][4Pal][Phe(4-COOH)]G[Pro(cis-4-F)][Trp(βS-Me,4-F)][Aib]SW[d(αMeD)][Ala(pyrimidin-5-yl)]Q[Dab]G[dProc4Bn4Cl]) (ring closure inferred) [SEQ ID NO 329]
0.013	cyclo([Bip(4'-COOH)][4Pal][Phe(4-COOH)]G[Pro(cis-4-F)][Trp(βS-Me,4-F)][Aib]SW[d(αMeD)][4Pal]Q[Dab]G[dPro(4R-Bzl(4-F))]) (ring closure inferred) [SEQ ID NO 324]
